Legend:
[1] = biological target: PRRSV nsp11 mutant F76A, pET-30a (+) construct (PRRSV strain WUH3)
[2] = biological target: PRRSV nsp11 mutant G1A (PRRSV strain WUH3); assay: SEC; data not shown; Superdex 75 10/300 GL under the same buffer conditions (20 mM Tris-HCl pH 7.4, 200 mM NaCl), 1 mg protein
[3] = biological target: PRRSV nsp11 mutant G138A (PRRSV strain WUH3); assay: as above
[4] = biological target: PRRSV nsp11 mutant G137A (PRRSV strain WUH3); assay: as above
[5] = biological target: PRRSV nsp11 mutant Y69A (PRRSV strain WUH3); assay: as above
[6] = biological target: PRRSV nsp11 mutant S74A, pET-30a (+) construct (PRRSV strain WUH3)
[7] = biological target: PRRSV nsp11 mutant L54A (PRRSV strain WUH3); assay: SEC; data not shown; Superdex 75 10/300 GL under the same buffer conditions (20 mM Tris-HCl pH 7.4, 200 mM NaCl), 1 mg protein
[8] = biological target: PRRSV nsp11 mutant R153A made on the K173A template; assay: sedimentation velocity analytical ultracentrifugation (AUC)
[9] = biological target: PRRSV nsp11 mutant S166A (PRRSV strain WUH3); assay: SEC; data not shown; Superdex 75 10/300 GL under the same buffer conditions (20 mM Tris-HCl pH 7.4, 200 mM NaCl), 1 mg protein
[10] = biological target: PRRSV nsp11 mutant R55A (PRRSV strain WUH3); assay: as above
[11] = biological target: PRRSV nsp11 mutant K173A, pET-42b (+) construct with C-terminal His6 tag (PRRSV strain WUH3); assay: SEC; Superdex 75 10/300 GL, 20 mM Tris-HCl pH 7.4, 200 mM NaCl, 0.6 ml/min, 4°C, 1 mg protein; masses from a calibration curve; fractions checked by SDS-PAGE
[12] = biological target: PRRSV nsp11 mutant K173A, pET-42b (+) construct with C-terminal His6 tag (PRRSV strain WUH3); assay: AUC; sedimentation velocity, 45,000 rpm, 18°C, 280 nm, c(s) distribution with Sedfit
[13] = biological target: PRRSV nsp11 mutant F76A made on the K173A template; assay: sedimentation velocity analytical ultracentrifugation (AUC)
[14] = biological target: PRRSV nsp11 mutant V165A (PRRSV strain WUH3); assay: SEC; data not shown; Superdex 75 10/300 GL under the same buffer conditions (20 mM Tris-HCl pH 7.4, 200 mM NaCl), 1 mg protein
[15] = biological target: PRRSV nsp11 mutant S74A made on the K173A template; assay: sedimentation velocity analytical ultracentrifugation (AUC)
[16] = parent: 4.396 (dimer species, 86.67%), 2.614 (monomer species, 14.04%)
[17] = parent: 63.7 (dimer species, 86.67%), 29.2 (monomer species, 14.04%)

Substance “PRRSV nsp11 mutant F76A, pET-30a (+) construct (enzyme)” has an endoribonuclease activity (FRET assay, 2 μM enzyme, 1 μM fluorescent RNA substrate, 25°C), against wild-type nsp11 (fold less than wild type) [1] of over 4.
Substance PRRSV nsp11 mutant G1A (enzyme) has a stoichiometry N [2] of 2.
PRRSV nsp11 mutant G138A (enzyme) showed a stoichiometry N [3] of 2.
PRRSV nsp11 mutant G137A (enzyme) gave a stoichiometry N [4] of 2.
With PRRSV nsp11 mutant Y69A (enzyme) the stoichiometry N [5] was 2.
Work on “PRRSV nsp11 mutant S74A, pET-30a (+) construct (enzyme)” yielded an endoribonuclease activity (FRET assay, 2 μM enzyme, 1 μM fluorescent RNA substrate, 25°C), against wild-type nsp11 (fold less than wild type) [6] of over 4.
Substance PRRSV nsp11 mutant L54A (enzyme) has a stoichiometry N [7] of 2.
Work on “PRRSV nsp11 mutant K173A, pET-42b (+) construct with C-terminal His6 tag R153A” yielded an other: sedimentation coefficient S20,W [8, 16] of 3.4 S and an other: calculated molecular weight (MW) from AUC [8, 17] of 40.7.
PRRSV nsp11 mutant S166A (enzyme) showed a stoichiometry N [9] of 2.
Work on PRRSV nsp11 mutant R55A (enzyme) yielded a stoichiometry N [10] of 2.
Work on “PRRSV nsp11 mutant K173A, pET-42b (+) construct with C-terminal His6 tag (enzyme)” yielded a stoichiometry N [11] of 2, a percent dimer [12] of 86.7% and a percent monomer [12] of 14%.
For “PRRSV nsp11 mutant K173A, pET-42b (+) construct with C-terminal His6 tag F76A”, the other: sedimentation coefficient S20,W [13, 16] was 3.07 S and the other: calculated molecular weight (MW) from AUC [13, 17] was 37.8.
For PRRSV nsp11 mutant V165A (enzyme), the stoichiometry N [14] was 2.
“PRRSV nsp11 mutant K173A, pET-42b (+) construct with C-terminal His6 tag S74A” gave an other: sedimentation coefficient S20,W [15, 16] of 3.32 S and an other: calculated molecular weight (MW) from AUC [15, 17] of 50.2.

Source: article PMC4836315
